This note sets out measurements from patent CN114685656A (鲁南制药集团股份有限公司, dated 2022).

Positions count from the first letter of the chain named.

Assay [1] addresses 猴SIRPα受体 on CHO cells (CHO-cyno-SIRPα) (monkey (cyno)). Description: flow cytometry on CHO-cyno-SIRPα cells, PE anti-mouse IgG Fc.
The target in assay [2] is 人SIRPα受体 on CHO cells (CHO-huSIRPα) (human) (UniProt P78324). Description: flow cytometry on CHO-huSIRPα cells, PE anti-mouse IgG Fc.
A further assay addresses 重组hu-SIRPα-his (human, UniProt P78324 31-370, limits assumed). As to the kind of experiment: ELISA on coated hu-SIRPα-his (0.5 μg/ml), anti-mouse IgG-HRP.
Assay [3] has as its target T1, 重组hSIRPα (human, UniProt P78324 31-370, limits assumed).
T1 construct: also called SIRPα蛋白; SIRPα抗原
Description: competition ELISA on coated hSIRPα (1 μg/ml) against biotinylated CD47-Fc (6 μg/ml).

The target of assay [4] is T2, 重组hSIRPg-his (human, UniProt Q9P1W8 29-360, limits assumed).
T2 construct: also called sirp-γ
Description: competition ELISA on coated hSIRPg-his (1 μg/ml) against biotinylated CD47-Fc (6 μg/ml).

Assay [5] concerns the target 人SIRPα受体 on CHO cells (CHO-huSIRPα) (human) (UniProt P78324). As to the kind of experiment: flow cytometry, hybridoma supernatant on CHO-huSIRPα cells, PE anti-mouse IgG Fc.
Assay [6] addresses 猴SIRPα受体 on CHO cells (CHO-cyno-SIRPα) (monkey (cyno)). As to the kind of experiment: flow cytometry, hybridoma supernatant on CHO-cyno-SIRPα cells, PE anti-mouse IgG Fc.
The target of assay [7] is T2, 重组hSIRPg-his. Description: ELISA on coated hSIRPg-his (1 μg/ml), anti-mouse IgG-HRP.
In assay [8] the target is T1, 重组hSIRPα. As to the kind of experiment: SPR (Biacore T200), antibody captured on Protein A chip, SIRPα protein as analyte, 1:1 Langmuir fit.

Regarding mIgG (antibody), the MFI in [1] turned out to be 76.4 MFI; in [2], 86.6 MFI.
SE5A5 (antibody) had an EC50 with 重组hu-SIRPα-his of 0.0225 µg/mL. Besides, the 50% inhibitory concentration (IC50) in the assay with 重组hSIRPα [3] was 0.121 µg/mL.

B1: Kwar23 (antibody, V domains shown)
VH: EVQLQQSGAELVKPGASVKLSCTASGFNIKDYYIHWVQQRTEQGLEWIGRIDPEDGETKYAPKFQDKATITADTSSNTAYLHLSSLTSEDTAVYYCARWGAYWGQGTLVTVSS
VL: QIVLTQSPAIMSASPGEKVTLTCSASSSVSSSYLYWYQQKPGSSPKLWIYSTSNLASGVPARFSGSGSGTSYSLTISSMEAEDAASYFCHQWSSYPRTFGAGTKLELK
For the molecule B1, the IC50 with 重组hSIRPg-his [4] was found to be 0.0394 µg/mL.

B2: 36G4 (antibody, V domains shown)
VH: EVQLVESGGGLVQPGGSLKLSCAASGFTFSNYGMSWVRQTPDKRLELVATINSNGGDTSYPDSVRGRFTISRDNAKNTLYLQMSSLKSEDTAMYYCTRGGWSWFAYWGQGTLVTVSA
VL: DIVLTQSPTSLAVSLGQRATISCRASESADSYGNSYMNWYQQKPGQPPKLLIYLASNLESGVPARFSGSGSRTDFTLTIDPVEADDAATYYCQQINEDPYTFGGGTKLEIK
notes: also called 抗SIRPα抗体36G4
In the case of B2, in the assay with 重组hu-SIRPα-his, the 50% effective concentration (EC50) was 0.0235 µg/mL. Moreover, the MFI in assay [5] amounted to 9520 MFI; in assay [6], 4560 MFI. The IC50 with 重组hSIRPα [3] is 0.15 µg/mL.

B3: 40F3 (antibody, V domains shown)
VH: QVQLQQPGAELGKPGASVKLSCKASGYTFSSYYIYWLKQRPGQGLEWIGGINPSNDDTHLTEKFKSKATLIADRSSSTAYIQLSSLTSEDSAVYYCTRSYYANSWFAYWGQGTLVTVSA
VL: DIVLTQSPLSLPVSLGDQASISCRSSQTIVHSNGNTYLAWYLQKPGQSPKLLIYKVSNRFSGVPDRFSGSGSGTEFTLKISRVEAEDLGVYYCFQGSHVPYTFGGGTKLEIK
notes: also called 抗SIRPα抗体40F3
Regarding B3, in the assay with 重组hSIRPg-his [7], the binding result is reported as “no binding”. This molecule also displayed a Kd with 重组hSIRPα [8] of approximately 0.01 nM. Further, in the assay with 重组hu-SIRPα-his, the EC50 stood at 0.00587 µg/mL. Also, the MFI in [5] was 17200 MFI; in assay [6] it was 7570 MFI. In addition, the concentration for half-maximal inhibition (IC50) with 重组hSIRPα [3] was found to be 0.0653 µg/mL.

B4: 36D6 (antibody, V domains shown)
VH: EVQLQESGPELKKPGETVKISCKASGYTFTKYGMNWVKQAPGKGLKWLAWINTDTGEAKYSDDFKGRFAFSLETSASIVYLQINNLKNEDTATYFCARGESYSNYVRFVYWGQGTTVTVSS
VL: DIVMTQSHKFMSTSVGDRVSITCKASQDVNTAVAWYQQKAGHSPKLLIYWTSTRHTGVPDRFTGSGSGTDYTLTISSVQAEDLTLYYCQQHYSTPWTFGGGTKLEIK
notes: also called 抗SIRPα抗体36D6
With B4, the EC50 in the assay with 重组hu-SIRPα-his was 0.0192 µg/mL. For the same molecule, the MFI in assay [5] is 9270 MFI; in assay [6], 5000 MFI. For the same molecule, the concentration for half-maximal inhibition (IC50) with 重组hSIRPα [3] was 0.248 µg/mL.

B5: 52B3 (antibody, V domains shown)
VH: EVQLQQSGAELVRSGASVKMSCKASDYTFTSYNLHWVKQTPGQGLEWIGYIYPGNGNTKYSQKFKGKATLTADTSSSTAYMQISSLTSEDSAVYFCTRNYDYYFYTMGYWGQGTTVTVSS
VL: DIVLTQSPKFMSTSVGDRVNITCKASQDVCTAVAWYQQKPGQSPKLLIYSASYRYTGVPDRFTGSGSRTDFTFTISSVQAEDLAVYYCQQHYSTPLTFGAGTKLELK
notes: also called 抗SIRPα抗体52B3
B5 returned an EC50 in the assay with 重组hu-SIRPα-his of 0.00736 µg/mL. For the same molecule, the values for the MFI in assay [5] and in assay [6] were 13600 MFI and 6980 MFI, respectively. Further, the concentration for half-maximal inhibition (IC50) with 重组hSIRPg-his [4] amounted to 0.196 µg/mL; with 重组hSIRPα [3], 0.121 µg/mL.

B6: 57B10 (antibody, V domains shown)
VH: B5 VH with Q3K, Q6E, D26G, L34M, V37I, N57A, K59N, S61N, T97A, G108D
VL: B5 VL with P8T, N20S, C30S, Y86F, Y92F, T94A
notes: also called 抗SIRPα抗体57B10
B6: the equilibrium dissociation constant (Kd) in the assay with 重组hSIRPα [8] is approximately 0.01 nM. Further, a half-maximal response in the assay with 重组hu-SIRPα-his (EC50) required 0.00546 µg/mL. In addition, the MFI in [5] came out at 18500 MFI; in [6], 9230 MFI. This molecule gave an IC50 in the assay with 重组hSIRPα [3] of 0.0633 µg/mL.
